Where two headings read alike, the source gives them in different places.
T1: BK virus VP1 protein, genotype I (BK virus, UniProt P03088 1-362)
T1 sequence: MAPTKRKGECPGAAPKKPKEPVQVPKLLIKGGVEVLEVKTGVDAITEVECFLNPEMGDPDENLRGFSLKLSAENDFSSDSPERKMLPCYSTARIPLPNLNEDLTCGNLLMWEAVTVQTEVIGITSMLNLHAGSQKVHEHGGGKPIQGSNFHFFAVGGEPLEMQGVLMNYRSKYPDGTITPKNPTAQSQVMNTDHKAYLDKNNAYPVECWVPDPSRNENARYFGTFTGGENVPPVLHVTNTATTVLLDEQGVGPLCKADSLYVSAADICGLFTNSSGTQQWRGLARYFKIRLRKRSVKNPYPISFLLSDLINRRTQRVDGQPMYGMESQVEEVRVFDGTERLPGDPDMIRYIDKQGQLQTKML


How the values were obtained:
Experiment in all cases: cell-based or functional assay
[1] = molecular target: T1, BK virus VP1 protein, genotype I
[2] = molecular target: BK virus VP1 protein, genotype IV (BK virus)
[3] = molecular target: BK virus VP1 protein, genotype III (BK virus)
[4] = molecular target: BK virus VP1 protein, genotype II (BK virus)
[5] = molecular target: T1, BK virus VP1 protein, genotype I; remark: listed apart in the source
[6] = molecular target: BK virus VP1 protein, genotype IV (BK virus); remark: listed apart in the source
[7] = molecular target: BK virus VP1 protein, genotype III (BK virus); remark: listed apart in the source
[8] = molecular target: BK virus VP1 protein, genotype II (BK virus); remark: listed apart in the source
[9] = molecular target: T1, BK virus VP1 protein, genotype I; remark: listed apart in the source
[10] = molecular target: BK virus VP1 protein, genotype IV (BK virus); remark: listed apart in the source
[11] = molecular target: BK virus VP1 protein, genotype III (BK virus); remark: listed apart in the source
[12] = molecular target: BK virus VP1 protein, genotype II (BK virus); remark: listed apart in the source

Row | Binder | EC50, pseudovirus neutralization [1] | EC50, pseudovirus neutralization [2] | EC50, pseudovirus neutralization [3] | EC50, pseudovirus neutralization [4] | EC50, pseudovirus neutralization (mAb mixed with irrelevant isotype matched mAb M2) [5] | EC50, pseudovirus neutralization (mAb mixed with irrelevant isotype matched mAb M2) [6] | EC50, pseudovirus neutralization (mAb mixed with irrelevant isotype matched mAb M2) [7] | EC50, pseudovirus neutralization (mAb mixed with irrelevant isotype matched mAb M2) [8] | EC50, pseudovirus neutralization (mAb mixed with irrelevant isotype matched mAb M2) [9] | EC50, pseudovirus neutralization (mAb mixed with irrelevant isotype matched mAb M2) [10] | EC50, pseudovirus neutralization (mAb mixed with irrelevant isotype matched mAb M2) [11] | EC50, pseudovirus neutralization (mAb mixed with irrelevant isotype matched mAb M2) [12] | EC50, pseudovirus neutralization [10] | EC50, pseudovirus neutralization [11] | EC50, pseudovirus neutralization [12]
1 | 6E1 (antibody, V domains shown) VH: EVQLLESGGGLVQPGGSLRLSCAASGFTFSSFAMSWVRQAPGKGLEWVSGISGSGGSTYYADSVKGRFTISRDNSKNTLYLQMNSLRAEDTAIYYCAKDKRNWNYGIDSFDFWGQGTMVTVSS VL: DIQMTQSPSSLSASVGGRVTITCRTSQSISGYLNWYQQKAGKAPKLLIYATSNLQSGVPSRFTGSGSGTDFTLTISSLQPEDFAAYYCHQSHSPPFTFGPGTKVAFK | 0.00295 nM | 0.0095 nM | > 6.67 nM | > 6.67 nM | 0.00067 nM | 0.0496 nM | > 6.67 nM | > 6.67 nM | 0.00078 nM | 0.021 nM | > 2 nM | > 2 nM | – | – | –
2 | 9H9 (antibody, V domains shown) VH: EVQLVESGGGLVQPGGSLRLSCAASGFTFSSYEMNWVRQAPGKGLEWVSYISSGGSSIKYADSVRGRFTFSRDNAENSVHLQMNSLRGEDTAVYYCARVGGSYYYSYAMDVWGQGTAVTVSS VL: DIQLTQSPSFLSASVGDRVTITCWASQDISSYLAWYQQKPGKAPKLLIYAASTLQSGVPSRFSGSGSGTEFTLTISSLQPEDFATYYCQQPNNYPFSFGPGTKVDVK | 0.0087 nM | > 6.67 nM | 1.14 nM | 0.0083 nM | – | – | – | – | – | – | – | – | – | – | –
3 | 2B9 (antibody, V domains shown) VH: EVQLLESGGGLAQPGKSLRLSCAASGFTFSGFAMSWVRQAPGKGLEWVSGISGSGDITYYADSVKGRFTISRDNSKSTLYLQMNSLGAEDTAVYYCAKDPYNWNHGVYGMDVWGQGTTVTVSS VL: DIQMTQSPSSLSASVGDRVTITCRASQSISSYLNWYQQKPGKAPKFLIYGASSLQSGVPSRFSGSGSGTDFTLTISSLQPEDFAAYYCQQSFNAPLTFGGGTKVEIK | – | 0.148 nM | 0.0808 nM | 0.154 nM | – | 0.0108 nM | 0.0054 nM | 0.044 nM | – | – | – | – | 0.0114 nM | 0.0068 nM | 0.0613 nM
4 | 2A10 (antibody, V domains shown) VH: EVQLVQSGAEVKKPGESLKISCKGSGYSFTYYWIGWVRQMPGKGLEWMGIIYPGDSDTRYSPSFQGQVTISADKSISTAYLQWSSLKASDTAMYYCTTHARNWNNVAYWGQGTLVTVSS VL: DIQMTQSPSSLSASVGDRLTITCRASQNINTFLNWYQQNPGKAPKVLIYAASSLESGVPSRFSGSGSGTDFTLTISSLQPEDFATYYCQQSSSTPWTFGQGTKVEIK | > 6.67 nM | 0.0015 nM | 0.0024 nM | 0.0094 nM | > 6.67 nM | 0.0059 nM | 0.0064 nM | 0.0557 nM | > 2 nM | 0.00072 nM | 0.000654 nM | 0.0112 nM | – | – | –
5 | 2F11 (antibody, V domains shown) VH: EVQLVQSGAEVKKPGESLKISCKGSGYSFTNYWIGWVRQMPGKGLEWMGIIYPGDSDTRYSPSFQGQVTLSADKSISTAYLQWNSLKASDTAMYYCATHARSWNYVAYWGQGTLVTVAS VL: DIQMTQSPSSLSASVGDRVTITCRASQSVNNFLNWYQQKPGTAPKLLIYAASSLQGGVPSRFSGSGSGTDFTLTISSLQPEDFATYYCQQSNTTPWTFGQGTKVEIK | > 6.67 nM | 0.0061 nM | 0.0105 nM | 0.0838 nM | – | – | – | – | > 2 nM | 0.00185 nM | 0.0061 nM | 0.148 nM | – | – | –

— US20250304658A1 (ICAHN SCHOOL OF MEDICINE AT MOUNT SINAI, published 2025)
